A short description of this data set: self-splicing fitness, log relative to wild type (ln ratio); higher = more splicing; Tetrahymena group I intron in knt gene, E. coli kanamycin selection, DiMSum; sequences stand for … in CUCUCU…GGAGGGAAAAGUUAUCAGGCAUGCACCUGGUAGCUAGUCUUUAAACCAAUAGAUUGCAUCGGUUUAAAAGGCAAGACCGUCAAAUUGCGGGAAAGGGGUCAACAGCCGUUCAGUACCAAGUCUCAGGGGAAACUUUGAGAUGGCCUUGCAAAGGGUAUGGUAAUAAGCUGACGGACAUGGUCCUAACCACGCAGCCAAGUCCUAAGUCAACAGAUCUUCUGUUGAUAUGGAUGCAGUUCACAGACUAAAUGUCGGUCGGGGAAGAUGUAUUCUUCUCAUAAGAUAUAGUCGGACCUCUCCUUAAUGGGAGCUAGCGGAUGAAGUGAUGCAACACUGGAGCCGCUGGGAACUAAUUUGUAUGCGAAAGUAUAUUGAUUAGUUUUGGAGUACUCGUGGUCG
A digest of the protocol:
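Fitness was computed with DiMSum as the error-weighted combination of replicate fold changes, kanamycin versus none, each normalised to wild type. The library randomised all eight intron nucleotides of the P1ex region, with the intron placed in the knt kanamycin-resistance gene on pET-22b(+) in E. coli BL21(DE3). Six replicate transformations were grown overnight at 37°C or 30°C on LB agar with or without 25 μg/mL kanamycin, plus 100 μg/mL carbenicillin, 50 μM IPTG and 0.2% rhamnose. Pooled colonies were amplicon-sequenced on an Illumina HiSeq 2500.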

± gives the uncertainty stated by the source.

As to GCGCAGCAAUAUUACGUUUG, the “self-splicing fitness (ln)” value runs as follows: (30 °C) -1.86 ± 0.14; (37 °C) -1.76 ± 0.14.

Turning to UUUGAGCAAUAUUACGUCCU, the “self-splicing fitness (ln)” value (30 °C) is -3.03 ± 0.27 and the “self-splicing fitness (ln)” value (37 °C) is -1.77 ± 0.2. The corresponding values for GGAAAGCAAUAUUACGUCCG are -0.651 ± 0.23 and -0.324 ± 0.21. As to CUGCAGCAAUAUUACGAGAU, the “self-splicing fitness (ln)” value (30 °C) was -3.69 ± 0.34. For UACAAGCAAUAUUACGUGAU, the “self-splicing fitness (ln)” value was -3.16 ± 0.14 (30 °C) and -1.34 ± 0.14 (37 °C). For GCACAGCAAUAUUACGCCAA, the “self-splicing fitness (ln)” value by setting is: (30 °C) -3.77 ± 0.25; (37 °C) -2.56 ± 0.2. With UUCUAGCAAUAUUACGGUAU, the “self-splicing fitness (ln)” value (37 °C) is -0.561 ± 0.24.

For the sequence GCUUAGCAAUAUUACGACGA, the “self-splicing fitness (ln)” value (30 °C) is -0.927 ± 0.16 and the “self-splicing fitness (ln)” value (37 °C) was -0.516 ± 0.13. Consider GUCUAGCAAUAUUACGUCCC, for which the “self-splicing fitness (ln)” value was 0.0985 ± 0.14 (30 °C) and -0.0539 ± 0.14 (37 °C). Take AACCAGCAAUAUUACGGCAC: the “self-splicing fitness (ln)” value runs as follows: (30 °C) -0.615 ± 0.055; (37 °C) -0.257 ± 0.079. In the same order, the values of CCGCAGCAAUAUUACGCCUU are -3.2 ± 0.21 and -2.08 ± 0.16. The corresponding values for UGUCAGCAAUAUUACGAGUG are -1.07 ± 0.085 and -0.261 ± 0.094.

For GUCCAGCAAUAUUACGUGAA, the “self-splicing fitness (ln)” value (30 °C) turned out to be 0.0486 ± 0.079 and the “self-splicing fitness (ln)” value (37 °C) is 0.617 ± 0.098. For the sequence CGCGAGCAAUAUUACGUGGG, the “self-splicing fitness (ln)” value by setting is: (30 °C) -3.81 ± 0.29; (37 °C) -2.54 ± 0.21. CCGUAGCAAUAUUACGCACG: the “self-splicing fitness (ln)” value was -2.02 ± 0.096 (30 °C) and -1.53 ± 0.13 (37 °C). The corresponding values for UUCAAGCAAUAUUACGUGCG are -1.48 ± 0.092 and -0.425 ± 0.088. CGACAGCAAUAUUACGCAGA: the “self-splicing fitness (ln)” value runs as follows: (30 °C) -2.61 ± 0.1; (37 °C) -2.06 ± 0.1. UGGCAGCAAUAUUACGCACU: the “self-splicing fitness (ln)” value reads like this: (30 °C) -0.473 ± 0.068; (37 °C) 0.399 ± 0.094. In the same order, the values of UCUAAGCAAUAUUACGCAUU are -2.92 ± 0.21 and -2.83 ± 0.28. In the same order, the values of UAGCAGCAAUAUUACGUAUA are -1.89 ± 0.096 and -0.924 ± 0.12. In the same order, the values of GGUGAGCAAUAUUACGAGUA are -1.41 ± 0.21 and -1.69 ± 0.29. As to ACAUAGCAAUAUUACGUACC, the “self-splicing fitness (ln)” value was -0.809 ± 0.17 (30 °C) and 0.0877 ± 0.2 (37 °C). The corresponding values for AGUAAGCAAUAUUACGAAUC are -4.12 ± 0.42 and -2.86 ± 0.34. In the same order, the values of AAUCAGCAAUAUUACGUCCU are 0.497 ± 0.09 and 0.632 ± 0.11. In the same order, the values of CCGAAGCAAUAUUACGCGGG are -3.3 ± 0.19 and -2.62 ± 0.24. In the case of UCCUAGCAAUAUUACGUACG, the “self-splicing fitness (ln)” value (30 °C) was -3.14 ± 0.18 and the “self-splicing fitness (ln)” value (37 °C) is -1.78 ± 0.2. With UUCGAGCAAUAUUACGCACU, where the note is “37 °C”, the “self-splicing fitness (ln)” value is -1.76 ± 0.38. For the sequence ACAUAGCAAUAUUACGUAAA, the “self-splicing fitness (ln)” value is, setting by setting: (30 °C) -1.66 ± 0.12; (37 °C) -1.75 ± 0.21.

Regarding AAGAAGCAAUAUUACGCGUC, the “self-splicing fitness (ln)” value (30 °C) was -2.48 ± 0.27 and the “self-splicing fitness (ln)” value (37 °C) was -1.21 ± 0.3.

For the sequence GCGGAGCAAUAUUACGGUCU, the “self-splicing fitness (ln)” value reads like this: (30 °C) -3.04 ± 0.44; (37 °C) -2.35 ± 0.36. In the same order, the values of GAAUAGCAAUAUUACGCCAA are -2.44 ± 0.23 and -1.39 ± 0.16.

In the case of GCCAAGCAAUAUUACGUCCA, the “self-splicing fitness (ln)” value runs as follows: (30 °C) -2.32 ± 0.18; (37 °C) 0.44 ± 0.2.

For the sequence CGUAAGCAAUAUUACGUAGG, the “self-splicing fitness (ln)” value reads like this: (30 °C) -1.09 ± 0.082; (37 °C) -0.149 ± 0.11. The corresponding values for UUUGAGCAAUAUUACGCGAA are -2.96 ± 0.34 and -1.71 ± 0.2. The corresponding values for AAUAAGCAAUAUUACGUCCA are -0.808 ± 0.13 and -0.899 ± 0.19.

For CCAUAGCAAUAUUACGCAAA, the “self-splicing fitness (ln)” value is, setting by setting: (30 °C) -1.93 ± 0.21; (37 °C) -2.15 ± 0.3. In the case of UCUUAGCAAUAUUACGAGGC, for the setting “30 °C”, the “self-splicing fitness (ln)” value was -3.01 ± 0.46.

Regarding UUACAGCAAUAUUACGUUUU, the “self-splicing fitness (ln)” value is -3.4 ± 0.11 (30 °C) and -0.802 ± 0.092 (37 °C). Regarding CGAGAGCAAUAUUACGACUA, the “self-splicing fitness (ln)” value (30 °C) is -2.56 ± 0.46.
